We go through 167 variants from the RNAGym collection of RNA variant scans (doi:10.7554/elife.80360).

B1: Twister Ribozyme (parent)
chain: AACACUGCCAAUGCCGGUCCCAAGCCCGGAUAAAAGUGGAGGGGGCGG

Variants of B1 are the subject of the data set. As to the kind of experiment: self-cleavage, relative activity (ratio to wild type); higher = more cleavage; co-transcriptional.
In the case of A4G A40U, the self-cleavage amounted to 0.163. The value for C3U G41U was 0.14; that for C3A C46A was 0.2. To C3A C46G belongs 0.117; to C3A C46U, 0.244. To A4C A34C belongs 0.0803.

Take A4C G7C: the self-cleavage came out at 0.0903. The value for A4C A22C was 0.0993. Consider A4C A22U, for which the self-cleavage came to 0.0826. Take C3U G44C: the self-cleavage amounted to 0.446. To C3U G29A belongs 0.32. The value for C3A G7C was 0.0682. Take A4C U31C: the self-cleavage amounted to 0.249.

For A4G G17U, the self-cleavage worked out at 0.0875. The value for A4G G17A was 0.473; that for C3G A4U was 0.13.

C3G A4G: the self-cleavage turned out to be 0.462.

In the case of C3G A4C, the self-cleavage worked out at 0.114. For C3A C9U, the self-cleavage stood at 0.0898. The value for C3U G42C was 0.159; that for C3A G38C was 0.297. To C3U C15A belongs 0.195; to C3A G16U, 0.141; to A4G C27A, 0.279. The value for A4G C27U was 0.74; that for C3A G48C was 0.251. As for A4C C20U, the self-cleavage was found to be 0.0732. The value for C3G A32C was 0.379. As to C3G A32U, the self-cleavage came out at 0.593.

For the variant C3G G13C, the self-cleavage was found to be 0.124. To C3G G13A belongs 0.138; to C3A G42U, 0.0908. The value for A4C A32G was 0.146.

For A4C A32U, the self-cleavage was determined as 0.159. To C3G C8A belongs 0.174; to C3U G13C, 0.168; to C3U G13U, 0.113.

As for C3G G41U, the self-cleavage was found to be 0.142. In the case of C3A G47A, the self-cleavage amounted to 0.245.

In the case of C3A G47U, the self-cleavage stood at 0.229. To C3G C25A belongs 0.0782; to A4G G16A, 0.918; to A4G G16U, 0.839. Take A4G G16C: the self-cleavage was determined as 0.243. To C3A C26U belongs 0.132.

For A4C G17U, the self-cleavage was determined as 0.0801. As to A4C G17A, the self-cleavage is 0.0548. The value for A4G U12G was 0.673; that for A4G U12A was 1.17. A4G C15A: the self-cleavage worked out at 0.631. To A4C C25U belongs 0.058; to C3U U6C, 0.0788.

In the case of C3U U6A, the self-cleavage came out at 0.144.

As to A4G G47A, the self-cleavage is 0.91. The value for A4G G47U was 0.902; that for C3G C5G was 0.101. To C3G C5A belongs 0.117. To C3G C5U belongs 0.309; to C3A C14G, 0.0567. C3G G39U: the self-cleavage is 0.107.

Consider C3G G39C, for which the self-cleavage amounted to 0.0914. To C3G G39A belongs 0.0984. To A4G A35U belongs 0.844; to A4G A35G, 0.525.

Consider A4G A35C, for which the self-cleavage was found to be 0.865. C3A G41C: the self-cleavage was found to be 0.07. The value for C3A G45C was 0.0823; that for C3A G45U was 0.152; that for C3U C20U was 0.308. Turning to A4G A23G, the self-cleavage is 0.384. The value for C3U G17A was 0.174; that for C3A C15A was 0.101.

With C3A C15G, the self-cleavage was found to be 0.0656. For C3A C15U, the self-cleavage was 0.108. As for A4C C46A, the self-cleavage turned out to be 0.063. The value for A4C C46G was 0.142. To C3G A11U belongs 0.762; to A4C G42U, 0.0422; to A4C G42C, 0.125. Consider C3A C21A, for which the self-cleavage is 0.0913. On to C3A G43A, for which the self-cleavage stood at 0.0599. C3G G29A: the self-cleavage came out at 0.348. A4C C15A: the self-cleavage came out at 0.12. The value for A4C C15U was 0.271. To A4C belongs 0.218. To A4G belongs 1. As for A4C G44C, the self-cleavage stood at 0.0939. To A4C G44U belongs 0.134; to C3A C19G, 0.0471. As to A4G C25A, the self-cleavage came to 0.054. To A4G C25G belongs 0.189. A4G G45A: the self-cleavage came out at 0.955. Consider A4C C9A, for which the self-cleavage was found to be 0.114. C3G A35U: the self-cleavage was found to be 0.488. In the case of C3G A35G, the self-cleavage worked out at 0.317. The value for C3U U31A was 0.249; that for A4G G29A was 0.819. Regarding C3G A33U, the self-cleavage is 0.526. To C3A G29C belongs 0.184; to A4C A10U, 0.203; to C3A G44U, 0.253. The value for C3A G44C was 0.207; that for C3A A33G was 0.0867. As for C3U C46A, the self-cleavage was determined as 0.338. The value for C3A C20G was 0.0637; that for C3A C20A was 0.0829. With A4G C21G, the self-cleavage was found to be 0.0683. To A4G C21A belongs 0.0832; to C3G A10G, 0.872; to A4C G24A, 0.0887. In the case of A4C G24U, the self-cleavage stood at 0.0584. To A4C G24C belongs 0.078.

As for A4C C26U, the self-cleavage turned out to be 0.0418. As for A4C C26G, the self-cleavage worked out at 0.103. On to A4C G45U, for which the self-cleavage was found to be 0.0976.

Take A4C G45A: the self-cleavage was 0.145. Regarding A4C G45C, the self-cleavage came out at 0.16.

With C3U G24C, the self-cleavage was 0.0842. The value for C3U G24U was 0.0933; that for C3G G44A was 0.509; that for A4C A23G was 0.0448. C3U A4U: the self-cleavage amounted to 0.12. To C3U A4C belongs 0.106; to C3U A34C, 0.155. To A4G G39A belongs 0.322; to C3U A33G, 0.361. Turning to A4G G44C, the self-cleavage is 0.645. To A4G G44U belongs 0.968.

Turning to C3G U31C, the self-cleavage came to 0.347. To C3G U31A belongs 0.57. Regarding A4C G36U, the self-cleavage worked out at 0.0758. To A4G U31G belongs 0.759.

On to A4G U31A, for which the self-cleavage is 0.604. The value for A4G U31C was 0.886; that for C3U G45U was 0.338. To C3U G45A belongs 0.422; to C3U G45C, 0.179; to C3G C20A, 0.0892.

For A4C C14G, the self-cleavage was determined as 0.0948. Turning to C3G A40U, the self-cleavage was 0.113. The value for C3G A40C was 0.12; that for A4C A11G was 0.193; that for C3A G28U was 0.144.

For C3A G28A, the self-cleavage worked out at 0.183. To C3U C19A belongs 0.0875. The value for C3U C19U was 0.374; that for C3A A34G was 0.1. The value for C3A A34U was 0.252. Turning to C3U A40U, the self-cleavage was determined as 0.0995.

For the variant C3U A40G, the self-cleavage turned out to be 0.0544. Turning to A4C G39A, the self-cleavage stood at 0.101. C3U G7U: the self-cleavage was determined as 0.0522. The value for A4C C8G was 0.071; that for A4G G13A was 0.563; that for A4G C5A was 0.892.

A4G C5G: the self-cleavage was 0.274.

With A4G C5U, the self-cleavage was 0.855. To C3G C21G belongs 0.0504. For the variant C3G C21U, the self-cleavage is 0.0445. To C3A A32C belongs 0.188; to C3A A32G, 0.0493; to C3A A32U, 0.278.

In the case of C3A A35U, the self-cleavage amounted to 0.16. To C3A A35C belongs 0.315. To A4G G36U belongs 0.164; to A4G G36C, 0.182. For A4G A30G, the self-cleavage turned out to be 0.81.
